Data published in the RNAGym collection of RNA variant scans (doi:10.1073/pnas.2313332121).
Fewer inactive variants are shown than the library holds.

B1: TPR 5TU (parent)
chain: GGAUCUUCUCGAUCUAACAAAAAAGACAAAUCUGCCACAAAGCUUGAGAGCAUCUUCGGAUGCAGAGGCGGCAGCCUUCGGUGGCGCGAUAGCGCCAACGUUCUCAACUAUGACACGCAAAACGCGUGCUCCGUUGAAUGGAGUUUAUCAUG

Variants of: B1
Assay: polymerase ribozyme fitness, log enrichment relative to wild type (log ratio); higher = more active; in vitro selection for triplet polymerase activity
Method in brief: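 Libraries of mutants in each subunit of a heterodimeric triplet polymerase ribozyme were generated by PCR and transcribed. In triplicate, each went through one in vitro selection round: annealing with biotinylated primer, partner subunit and triplets; frozen incubation at −7 °C; gel excision of extended constructs; streptavidin-bead capture; RT-PCR. Fitness, taken from Illumina sequencing of input and output libraries, is the logarithm of a genotype's enrichment over wild-type enrichment, averaged across replicates with inverse-variance weights. The logarithm is base 2, and genotypes needed ≥10 input reads and ≥1 read per output to be kept.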

Variant	polymerase ribozyme fitness (log ratio)
GGAUCUUCUCGAUCUAACAAAAAAGACAAAUCUGCCACAAAGCUUGAGAGCAUCUUCGGAUGCCGAGGCGGCAGCCUUCGGUGGGGCGAUAGCGCCAACGUUCUCAACUAUGACACGCAAAACGCGUGCUCCGUUGAAUAGAGUUUAUCAUG [A64C C85G G140A]	≤ -4.2
GGAUCUUCUCGAUCUAACAAAAAAGACAAAUCUGCCACAAAGCUUGAGAGCAUCUUCGGAUGCCGAGGCGGCAGCCUUCGGUGGCGCCAGAGCGCCAACGUGCUCAACUAUGACACGCUUAACGCGUGCUCCGUUGAAUGGAGUUUAUGAUG [A64C G88C U90G U102G A119U A120U C149G]	≤ -4.2
GGAUCUUCUCGAUCUAACAAAAAAGACAAAUCUGCCACAAAGCUUGAGAGCAUCUUCGGAUGGAGAGGCGGCAGUCUUCGGUGGCGCGAUAGUGCCAACGUUCUCAACUAUGACACGCAUAACGCGUGCUCCGUUGAAUGGAGUUUAUCAUG [C63G C75U C93U A120U]	-0.964
GGAUCUUCUCGAUCUAACAAAAAAGACAAAUCUGCCACAAAGCUUGAGAGCAUCUUCGGAUGCCGAGGCGGCAGCCUUCGGUCGCGCGAUAGCGCCAACGUUCUCAACUAUGACACGCAAAACGCGUGCUCCGUUGAACGGAGUUUAUCCUU [A64C G83C U139C A150C G152U]	≤ -4.2
GGAUCUUCUCGAUCUAACAAAAAAGACAAAUCUGCCACAAAGCUUGAGAGCAUCUUCGGAUGUAGAGGCGGCAGCCUUCGGUGGCGCGAUAGCGCCAACGUUCUCAACUAUGACACGCAAAACGCGUGCUCCGUUGAAUGCAGUUUAUCAUG [C63U G141C]	-0.69
GGAUCUUCUCGAUCUAACAAAAAAGACAAAUCUGCCACAAAGCUUGAGAGCAUCUUCGGAUGUAGAGGCGGCAGCCUUUGGUGGCGCCAGAGCGACAAUGUUCUCAUCUAUGACACGCAAAACGCGUGCUCCGUUGAAUGGAGUUUAUCAUG [C63U C79U G88C U90G C95A C99U A107U]	≤ -4.2
GGAUCUUCUCGAUCUAACAAAAAAGACAAAUCUGCCACAAAGCUUGAGAGCAUCUUCGGAUGGAGAGGCGGCGGCCUUCGGUGGCGCGAUAGCACCAACGUUCUCAACUAUGACACGCAAAACGCGUGCUCCGUUAAAUGGAGUUUAUCAUG [C63G A73G G94A G136A]	-0.0432
GGAUCUUCUCGAUCUAACAAAAAAGACAAAUCUGCCACAAAGCUUGAGAGCAUCUUCGGAUGUAGAGGCGGCAGCCUUCGGUCGGGCGAUAGCGCCAACGUUCUAAACUCUGACACGCAAAACGCGUGCUCCGUUGAAUGGAGUUUAUCAUG [C63U G83C C85G C105A A110C]	≤ -4.2
GGAUCUUCUCGAUCUAACAAAAAAGACAAAUCUGCCACAAAGCUUGAGAGCAUCUUCGGAUGGAGAGGCAGCAGCCUUCGGUGGCGCGAUAGCGCCAACGUUCUCAACUAUGACACGCAAAACGCGUGCUCCGUUGAAUGGAGUUUAUCAUG [C63G G70A]	-3.15
GGAUCUUCUCGAUCUAACAAAAAAGACAAAUCUGCCACAAAGCUUGAGAGCAUCUUCGGAUGUAGAGGCGGCAGCCUUCGGUGGCGCGAUAGCGCCAAGGUUCUCAACUAUGACACGCAAAACGCGUGCUCCGUUGAAUGGAGUUUAUCAUG [C63U C99G]	-1.04
GGAUCUUCUCGAUCUAACAAAAAAGACAAAUCUGCCACAAAGCUUGAGAGCAUCUUCGGAUGAAGAGGCGGCAGCCUUCGGUGGUGCGAUAGCGCCAACGUUCUCAACUAUGACACGCAAAACGCGUGCUCCGUUGAAUGGAGUUUAUCAUG [C63A C85U]	-0.129
GGAUCUUCUCGAUCUAACAAAAAAGACAAAUCUGCCACAAAGCUUGAGAGCAUCUUCGGAUGGAGAGGCGGCAGCCUUCGGUGGCGCGAUAGAGCCAACGUUCUCAACUAUGACACGCAAAACGCGUGCUCCGUUGAAUGGAGUUUAUCAUG [C63G C93A]	-1.77
GGAUCUUCUCGAUCUAACAAAAAAGACAAAUCUGCCACAAAGCUUGAGAGCAUCUUCGGAUGGAGAGGCGGCAGCCUUCGGUGGCGCGAUAGCGCCAACGUUCUCAACUAUGACACGCAAAACGGGUGCUCCGUUGAAUGGAGUCUAUCCUG [C63G C125G U145C A150C]	≤ -4.2
GGAUCUUCUCGAUCUAACAAAAAAGACAAAUCUGCCACAAAGCUUGAGAGCAUCUUCGGAUGCGGAGGCGGCAGCCUUCGGUGGUGCGAUAGCGCCAACGUUCUCAACUAUGACACGCAAAACGCGUGCUCCGUUGAAUGGAGUUUAUCAUG [A64G C85U]	-3.21
GGAUCUUCUCGAUCUAACAAAAAAGACAAAUCUGCCACAAAGCUUGAGAGCAUCUUCGGAUGGAGAGGCGGCAGCCUUCGGUGGCGUGAUAGCGCCAACGUUCUCAACUAUGACACGCAAAACGCGUGGUCCGUUGAACGGAUUUUAUCAUG [C63G C87U C129G U139C G143U]	≤ -4.2
GGAUCUUCUCGAUCUAACAAAAAAGACAAAUCUGCCACAAAGCUUGAGAGCAUCUUCGGAUGCCGAGCCGGCAGCCUUCGGUGGCGAGAUGGCGCCAAAGUUCUCAACUAUGACACGCAACCCGCGUGCUCCGUUGAAUGGAUUUUAUCAUG [A64C G68C C87A A91G C99A A121C A122C G143U]	≤ -4.2
GGAUCUUCUCGAUCUAACAAAAAAGACAAAUCUGCCACAAAGCUUGAGAGCAUCUUCGGAUGCCGUGGCGGCAGCCUUCGGUGGCGCGAUAGCGCCAACGUUCUCAACUAUGACACGCAAAGCGCGUGCUCCGUUGAAUGGAGUUUAUCAUG [A64C A66U A122G]	≤ -4.2
GGAUCUUCUCGAUCUAACAAAAAAGACAAAUCUGCCACAAAGCUUGAGAGCAUCUUCGGAUGGAGAGGCGGCAGCCUUCGGUGGCGCGAUAACGCCAACGUUCUCAACUAUGACACGCAAAACGCGUGCUCCGUUGAAUGGAGUGUAUCAUG [C63G G92A U145G]	-2.07
GGAUCUUCUCGAUCUAACAAAAAAGACAAAUCUGCCACAAAGCUUGAGAGCAUCUUCGGAUGAAGAGGCGGCAGCCUUCGGUGGCGCGAUAGUGCCACCGUUCUCAACUAUGACACGCAAAACGCGUGCUCCGUUGAAUGGAGUUUAUCAUG [C63A C93U A98C]	-1.62
